Our source for the EC50 values is patent publication US20250326840A1 (QURE BIOTECHNOLOGY SHANGHAI, published 2025).

In experiment [1] the target is T1, SIRPα V5 fusion Fc (mouse IgG2a) (human, limits assumed).
T1 chain: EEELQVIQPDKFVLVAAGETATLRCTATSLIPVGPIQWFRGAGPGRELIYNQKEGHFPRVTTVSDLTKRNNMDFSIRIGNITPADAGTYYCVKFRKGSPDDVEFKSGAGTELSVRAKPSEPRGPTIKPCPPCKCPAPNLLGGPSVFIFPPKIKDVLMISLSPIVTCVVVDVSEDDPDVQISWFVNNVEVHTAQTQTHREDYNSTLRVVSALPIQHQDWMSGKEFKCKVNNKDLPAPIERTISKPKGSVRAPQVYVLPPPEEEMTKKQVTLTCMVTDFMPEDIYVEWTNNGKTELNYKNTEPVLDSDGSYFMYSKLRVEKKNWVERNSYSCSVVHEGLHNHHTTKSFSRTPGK
Description: ELISA, SIRPα V5-mouse IgG2a Fc coated, anti-hFab detection; unit from the x axis Log(Conc.(nM)). For orientation: In an ELISA, binding on a coated surface is turned into a signal by an enzyme label.

Experiment [2] addresses T2, QP535 (SIRPαV6-mFC(mIgG2a)) (human, limits assumed).
T2 construct: also called human SIRPα V6 recombinant protein (QP535)
T2 chain: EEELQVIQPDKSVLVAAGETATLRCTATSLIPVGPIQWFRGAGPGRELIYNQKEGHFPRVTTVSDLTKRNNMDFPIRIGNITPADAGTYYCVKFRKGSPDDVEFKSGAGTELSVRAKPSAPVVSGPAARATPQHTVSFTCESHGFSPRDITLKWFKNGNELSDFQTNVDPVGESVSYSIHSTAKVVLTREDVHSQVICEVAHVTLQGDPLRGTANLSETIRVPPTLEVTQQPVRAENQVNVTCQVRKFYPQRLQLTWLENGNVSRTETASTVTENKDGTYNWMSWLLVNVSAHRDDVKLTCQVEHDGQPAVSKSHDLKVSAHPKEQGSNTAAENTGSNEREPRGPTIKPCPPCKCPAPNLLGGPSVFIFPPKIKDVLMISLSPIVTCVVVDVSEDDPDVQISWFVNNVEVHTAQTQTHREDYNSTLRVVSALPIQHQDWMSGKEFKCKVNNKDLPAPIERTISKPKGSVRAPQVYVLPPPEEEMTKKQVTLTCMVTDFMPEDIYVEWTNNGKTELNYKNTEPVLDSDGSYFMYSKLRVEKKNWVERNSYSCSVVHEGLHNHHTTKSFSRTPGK
Briefly: ELISA, human SIRPα V6 recombinant protein (QP535) coated, HRP anti-human Fc detection.

In experiment [3] the target is T3, SIRPα V1 fusion Fc (mouse IgG2a) (human, limits assumed).
T3 chain: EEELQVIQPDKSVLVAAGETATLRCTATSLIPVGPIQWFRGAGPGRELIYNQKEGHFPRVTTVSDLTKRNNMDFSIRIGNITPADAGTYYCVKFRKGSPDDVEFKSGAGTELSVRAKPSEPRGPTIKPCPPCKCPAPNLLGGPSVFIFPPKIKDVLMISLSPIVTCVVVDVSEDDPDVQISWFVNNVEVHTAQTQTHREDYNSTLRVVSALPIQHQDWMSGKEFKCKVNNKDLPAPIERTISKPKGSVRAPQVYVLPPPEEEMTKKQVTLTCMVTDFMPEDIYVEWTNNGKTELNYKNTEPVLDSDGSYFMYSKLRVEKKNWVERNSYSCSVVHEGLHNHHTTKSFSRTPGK
Briefly: ELISA, SIRPα V1-mouse IgG2a Fc coated, anti-hFab detection; unit from the x axis Log(Conc.(nM)).

For experiment [4], the target named is T4, SIRPα V9 fusion Fc (mouse IgG2a) (human, limits assumed).
T4 chain: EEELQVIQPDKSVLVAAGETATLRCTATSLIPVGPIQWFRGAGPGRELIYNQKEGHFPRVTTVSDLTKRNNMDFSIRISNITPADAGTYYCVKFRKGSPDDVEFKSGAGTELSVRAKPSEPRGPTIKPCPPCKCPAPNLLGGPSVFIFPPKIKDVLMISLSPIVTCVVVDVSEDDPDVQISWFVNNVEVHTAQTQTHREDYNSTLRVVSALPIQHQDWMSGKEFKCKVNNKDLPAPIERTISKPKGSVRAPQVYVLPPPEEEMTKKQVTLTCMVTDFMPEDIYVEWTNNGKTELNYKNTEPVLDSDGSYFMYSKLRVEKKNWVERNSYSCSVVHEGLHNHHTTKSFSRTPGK
Briefly: ELISA, SIRPα V9-mouse IgG2a Fc coated, anti-hFab detection; unit from the x axis Log(Conc.(nM)).

Experiment [5] addresses T5, SIRPα V6 fusion Fc (mouse IgG2a) (human, limits assumed).
T5 chain: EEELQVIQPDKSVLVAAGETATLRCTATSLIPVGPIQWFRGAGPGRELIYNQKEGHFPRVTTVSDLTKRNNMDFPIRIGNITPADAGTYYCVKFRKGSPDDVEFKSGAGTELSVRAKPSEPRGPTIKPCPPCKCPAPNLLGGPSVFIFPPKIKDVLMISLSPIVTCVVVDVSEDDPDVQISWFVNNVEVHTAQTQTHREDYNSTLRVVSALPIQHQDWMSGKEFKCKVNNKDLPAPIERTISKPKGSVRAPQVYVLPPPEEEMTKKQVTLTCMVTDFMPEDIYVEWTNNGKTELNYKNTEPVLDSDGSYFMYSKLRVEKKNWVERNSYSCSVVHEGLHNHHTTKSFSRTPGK
Briefly: ELISA, SIRPα V6-mouse IgG2a Fc coated, anti-hFab detection; unit from the x axis Log(Conc.(nM)).

The target in experiment [6] is T6, QP532 (SIRPαV3-mFC(mIgG2a)) (human).
T6 construct: also called human SIRPα V3 recombinant protein (QP532)
Briefly: ELISA, human SIRPα V3 recombinant protein (QP532) coated, HRP anti-human Fc detection.

Experiment [7] has as its target T7, QP536 (SIRPαV7-mFC(mIgG2a)) (human).
T7 construct: also called human SIRPα V7 recombinant protein (QP536)
Description: ELISA, human SIRPα V7 recombinant protein (QP536) coated, HRP anti-human Fc detection.

B1: QP250251 (18D5 analog) (antibody, human IgG4 S228P, kappa, V domains shown)
VH: QVQLQQPGAELVRPGSSVKLSCKASGYTFTSYWVHWVKQRPIQGLEWIGNIDPSDSDTHYNQKFKDKASLTVDKSSSTAYMQLSSLTFEDSAVYYCVRGGTGTMAWFAYWGQGTLVTVSA
VL: DVVMTQTPLSLPVSLGDQASISCRSSQSLVHSYGNTYLYWYLQKPGQSPKLLIYRVSNRFSGVPDRFSGSGSGTDFTLKISRVEAEDLGVYFCFQGTHVPYTFGSGTKLEIKR
notes: also called SIRPα antibody 18D5 from OSE
What is called EC50 is the concentration at which the effect is half-maximal. In the case of B1, the concentration giving a half-maximal response (EC50) is 0.13 nM in experiment [1]; 0.884 nM in experiment [2]; 0.154 nM in experiment [3]; 0.157 nM in experiment [4]; 0.114 nM in experiment [5].

B2: QP256279 (antibody, human IgG4, V domains shown)
VH: QVQLVQSGAEVKKPGASVKVSCKASGYTFTNYWINWVRQAPGQGLEWIAMIDPSDSETHYNQIFKDRATLTTDTSTSTAYMELRSLRSDDTAVYYCAMDYGSLYAMDYWGRGTLVTVSS
VL: DIVLTQSPDSLAVSLGERATINCRASQSVRSSGYNWIFWYQQKPGQPPKLLIYLASNRDSGVPDRFSGSGSGTDFTLTISSLQAEDVAVYYCQHSRELPTFGQGTKLEIK
notes: Human IgG4 heavy constant region and kappa CL
As to B2, the EC50 in experiment [1] came to 0.0691 nM; in experiment [3] it was 0.0786 nM; in experiment [4], 0.0874 nM; in experiment [5], 0.053 nM.

B3: QP32700279 (antibody, human IgG1, kappa, L234A L235A, V domains shown)
VH: QVQLVQSGAEVKKPGASVKVSCKASGYTFTNYWINWVRQAPGQGLEWIAMIDPSDSETHYNQIFKDRATLTTDTSTSTAYMELRSLRSDDTAVYYCAMDYGSLYAMDYWGRGTLVTVSS
VL: DIVLTQSPDSLAVSLGERATINCRASQSVRSSGYNWIFWYQQKPGQPPKLLIYLASNRDSGVPDRFSGSGSGTDFTLTISSLQAEDVAVYYCQHSRELPTFGQGTKLEIKR
notes: also called SIRPα monoclonal antibody CHO71
Take B3: the EC50 is 0.224 nM in experiment [2], 0.144 nM in experiment [6] and 0.176 nM in experiment [7].

B4: QP37503751 (1H9 analog) (antibody, human IgG1, kappa, N297A, V domains shown)
VH: QVQLVQSGAEVKKPGASVKVSCKASGYTFTSYWITWVKQAPGQGLEWIGDIYPGSGSTNHIEKFKSKATLTVDTSISTAYMELSRLRSDDTAVYYCATGYGSSYGYFDYWGQGTLVTVSS
VL: DIQMTQSPSSLSASVGDRVTITCRASENIYSYLAWYQQKPGKAPKLLIYTAKTLAEGVPSRFSGSGSGTDFTLTISSLQPEDFATYYCQHQYGPPFTFGQGTKLEIKR
notes: also called hz1H9 hIgG1(N297A)
As to B4, the values for the EC50 in experiment [2], in experiment [6] and in experiment [7] were 0.273 nM, 0.31 nM and 0.247 nM, respectively.

B5: QP026249 (KWAR23 analog) (antibody, human IgG4 S228P, kappa)
heavy: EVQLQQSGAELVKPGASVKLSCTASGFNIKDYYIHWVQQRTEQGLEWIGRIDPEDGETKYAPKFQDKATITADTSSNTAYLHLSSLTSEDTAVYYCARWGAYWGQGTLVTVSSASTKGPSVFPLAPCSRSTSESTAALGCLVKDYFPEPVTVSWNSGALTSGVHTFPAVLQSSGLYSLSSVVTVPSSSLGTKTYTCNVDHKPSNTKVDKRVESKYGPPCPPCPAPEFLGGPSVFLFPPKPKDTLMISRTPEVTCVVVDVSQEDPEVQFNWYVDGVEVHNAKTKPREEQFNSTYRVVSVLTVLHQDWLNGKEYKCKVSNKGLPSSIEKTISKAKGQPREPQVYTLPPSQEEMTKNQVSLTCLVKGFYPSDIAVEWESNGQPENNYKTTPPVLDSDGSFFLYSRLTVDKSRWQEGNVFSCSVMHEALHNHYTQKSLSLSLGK
light: QIVLTQSPAIMSASPGEKVTLTCSASSSVSSSYLYWYQQKPGSSPKLWIYSTSNLASGVPARFSGSGSGTSYSLTISSMEAEDAASYFCHQWSSYPRTFGAGTKLELKRTVAAPSVFIFPPSDEQLKSGTASVVCLLNNFYPREAKVQWKVDNALQSGNSQESVTEQDSKDSTYSLSSTLTLSKADYEKHKVYACEVTHQGLSSPVTKSFNRGEC
notes: also called KAWA23 analog; control antibody KWAR23 (QP026249), human IgG4
As to B5, the EC50 in experiment [1] was 0.144 nM; in experiment [2] it was 0.603 nM; in experiment [6] it was 0.433 nM; in experiment [3], 0.16 nM; in experiment [4], 0.181 nM; in experiment [7], 0.376 nM. Also, in experiment [5], the EC50 was 0.119 nM.
